From US20170269080A1 (VIRGINIA COMMONWEALTH UNIVERSITY, published 2017)

T1: PSGL-1 (sLe^x-capped, sialylated) on PSGL-1 CHO cells (UniProt Q14242 42-412, sLe^x-capped (alpha2,3-sialylated, alpha1,3-fucosylated glycan))
T1 construct: whole, on cells; also called sLe^x-modified PSGL-1; sialylated PSGL-1
T1 sequence: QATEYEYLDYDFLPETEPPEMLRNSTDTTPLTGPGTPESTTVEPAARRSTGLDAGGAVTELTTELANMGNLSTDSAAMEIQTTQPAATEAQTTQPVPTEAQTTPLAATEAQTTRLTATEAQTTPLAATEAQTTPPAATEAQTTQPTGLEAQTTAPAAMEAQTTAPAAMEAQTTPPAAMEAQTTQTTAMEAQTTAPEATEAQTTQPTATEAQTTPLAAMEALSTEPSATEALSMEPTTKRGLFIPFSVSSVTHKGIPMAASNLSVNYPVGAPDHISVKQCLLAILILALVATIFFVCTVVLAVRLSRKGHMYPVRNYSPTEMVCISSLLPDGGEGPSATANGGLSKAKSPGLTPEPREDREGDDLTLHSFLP


How the values were obtained:
[1] = target: T1, PSGL-1 (sLe^x-capped, sialylated) on …; assay: PSGL-1 CHO cells preincubated with GST-OmpA, Aph adherence counted (competition with the bacteria)
[2] = target: the molecule itself; assay: non-reducing SDS-PAGE and Western blot with anti-Asp14

Binder | reduction of Aph binding to sLe^x-modified PSGL-1 relative to GST alone [1] [%] | binding result [2]
GST-OmpA (N-terminal glutathione-S-transferase-tagged A. phagocytophilum OmpA without signal sequence) (other, also called GST-tagged Aph OmpA; GST-ApOmpA; not shown: glutathione-S-transferase (GST) tag, N-terminal, from vector pDest-15) CGTLLPDSNVGVGRHDLGSHRSVAFAKKVEKVYFDIGKYDLKGPGKKVILELVEQLRQDDSMYLVVIGHADATGTEEYSLALGEKRANAVKQFIIGCDKSLAPRVTTQSRGKAEPEVLVYSTDAQEVEKANAQNRRAVIVVEFAHIPRSGVADMHAPVASSITSENSNASAEGEDMEASEFSSAIAN | ~60 | 
GST-Asp14 (N-terminal glutathione-S-transferase-tagged A. phagocytophilum Asp14) (other, Coding region of asp14 (13.8 kDa) fused to GST; also called recombinant Asp14; not shown: glutathione-S-transferase (GST) tag, N-terminal, from vector pDest-15) MIPLAPWKSISVVYMSGSDEYKEIIKQCIGSVKEVFGEGRFDDVVASIMKMQEKVLASSMQQDDTGTVGQIESGEGSGARLSDEQVQQLMNSIREEFKDDLRAIKRRILKLERAVYGANTPKES |  | binds
